Test results reported in the Human Domainome abundance scans (Beltran et al. 2025).

B1: Transcriptional regulator ERG, residues 117 to 197; numbered along this chain, P11308 (parent)
chain: NMTTNERRVIVPADPTLWSTDHVRQWLEWAVKEYGLPDVNILLFQNIDGKELCKMTKDDFQRLTPSYNADILLSHLHYLRE

Variants of: B1
Test: abundance fitness (aPCA) (normalised: wild type 0, dead -1); higher = more abundant; growth selection in yeast, the domain comes from the species named
Conditions: Homo sapiens

Abundance fitness of substitutions, site by site:
A30: D -0.884; C -0.117
R24: Q 0.077; N -0.105; G -0.088; W -0.522; K 0; E -0.211; P -0.988; M -0.023; I -0.162; H -0.182; F -0.218; S -0.02; D -0.908; T 0.069; C -0.058; V -0.015; Y -0.209; L -0.017
W29: G 0.111; C 0.017; P -1.08; D 0.21; F -0.098; Y 0.006; S 0.11; K 0.048; R -0.006; H 0.082; M -0.038; E 0.127; A 0.101; L -0.168; V -0.143; T 0.065; I -0.07
T16: N -0.061; M 0.02; I 0.048; R -0.092; P -0.428; F -0.008; K -0.05; H 0.128; G -0.026; W -0.115; S -0.064; Q -0.171; D -0.115; Y 0.017; L 0.052; C 0.028
V23: H -0.846; K -0.991; S -0.761; G -0.997; P -0.877; R -1.04; T -0.167; Y -0.905; L -0.874; W -0.798; I -0.5; A -0.68; D -0.781; C -0.328; N -0.475; Q -1.04
P15: L -0.41; E -0.86; C -0.323; I -0.171; H -0.86; V -0.267; M -0.638; A -0.269; Q -0.495; D -0.94; S -0.611; T -0.632; G -0.803; K -0.915; W -0.516; Y -0.266; N -0.967; F -0.273; R -0.835
L17: E 0.093; Y -0.097; N 0.053; S 0.122; C 0.042; Q 0.033; G 0.074; H 0.045; F -0.295; R 0.039; T 0.154; I -0.002; D 0.091; P -1.08; M 0.046; V 0.017; W -0.041
W18: F -0.886; D -0.923; K -0.625; R -0.785; P -1.17; H -1.04; A -0.676; Q -0.578; V -0.937; L -0.979; C -1.04; M -0.635; S -0.864; N -0.994; E -0.885; Y -0.738; G -0.895
D21: N -0.113; H -0.09; R -0.051; M -0.084; C -0.09; W -0.141; T -0.065; G -0.032; Y -0.186; S -0.008; V -0.077; I -0.035; E 0.042; Q -0.087; A 0.004; L -0.106; K -0.138; F 0.024
W26: E -0.727; S -0.76; N -0.657; V -0.778; H -0.96; I -0.942; Y 0.011; R -0.808; F -0.068; T -1.34; A -0.886; P -0.956; G -0.965; K -0.785; C -0.982; L -0.658; Q -0.811
D14: T -0.417; P -0.898; E -0.346; V -0.656; G -0.706; K -0.872; C -0.085; Y -0.723; N -0.083; A -0.716; I -0.726; R -0.783; M -0.537; L -0.771; F -0.444; W -0.809; H -0.146
P12: I -1.37; G -0.136; H -0.452; C -0.644; M -0.65; T -0.343; E -0.019; K -0.215; V -0.631; L -0.505; S -0.209; D -0.042; R -0.248; Y -0.45; N -0.027; F -0.486; A -0.176; W -0.15
L27: E -0.965; C -0.47; I -0.085; S -1; N -1.02; Y -0.584; D -0.648; R -0.912; F -0.493; K -0.623; P -0.593; M -0.153; Q -0.658; T -0.628; W -0.891
H22: E 0.018; N 0.074; P -1.06; A -0.286; W -0.55; T -0.324; V -0.198; M -0.033; C -0.229; D -0.014; I -0.488; Y -0.672; S -0.357; L -0.532; F -0.701; G -0.18
Q25: N -0.214; E 0.022; Y -0.07; I -0.001; G -0.095; A 0.03; R -0.003; V 0.01; P -1; H -0.046; L 0.064; C -0.015; D -0.061; S -0.05; M 0.022; F -0.072; K -0.015
E28: I -0.108; N 0.012; L -0.09; H 0.005; K -0.041; S -0.099; D -0.146; R -0.095; Y -0.093; T -0.031; C -0.037; F -0.24; Q -0.062; V -0.04; P -0.534; A -0.022; W -0.16
I10: T 0.264; L -0.058; Y -0.013; W -0.089; R 0.093; P 0.214; Q 0.129; V 0.03; S 0.116; M 0.038
V11: E 0.056; M 0.087; C 0.106; I 0.102; Q -0.017; S 0.104; Y 0.113; G 0.05; F 0.078; K 0.029; H 0.321; A 0.102; D 0.013; N 0.063; W 0.2; L 0.067; R 0.209
S19: H -0.18; R -0.145; L -0.565; W -0.683; D -0.014; V -0.716; F -0.719; P -0.994; N -0.008; I -0.697; A -0.223; T -0.073; E -0.129; G -0.133; K -0.065; Y -0.798; Q -0.235
T20: S -0.053; D -0.206; F -0.205; L -0.198; G -0.225; R -0.05; H -0.012; P 0.06; Q -0.064; Y -0.276; A 0.021; M -0.219; W -0.413; E 0.011; I -0.11; N -0.072
A13: P 0.116; M -0.033; F -0.074; D 0.235; C 0.009; N 0.06; L -0.046; K -0.05; H 0.045; V -0.01; Q 0.11; R 0.043; Y -0.075; W -0.122; I 0.056; G 0.061; T 0.108
